In US20260117202A1 one finds OD value data, which are given here for 2 substances.

In test [1] the target is wild-type RSV F protein 2 before artificial mutation (RSV strain A2) (UniProt P03420). As to the kind of experiment: sandwich ELISA, AM14 coated, F at 2 µg/ml.
The target of test [2] is FHCS-2 (RSV strain A2) (UniProt P03420). Nature of the test: ELISA; F coated 625 ng/ml; stored -80° C. (An ELISA detects its analyte on a solid surface through an enzyme-linked reagent.)
The target of test [3] is FHCS-4 (RSV strain A2) (UniProt P03420). Nature of the test: ELISA; F coated 625 ng/ml; stored -80° C.
The target of test [4] is FHCS-1 (RSV strain A2) (UniProt P03420). As to the kind of experiment: ELISA; F coated 5000 ng/ml; stored -80° C.
The target in test [5] is FHCS-2 (RSV strain A2) (UniProt P03420). As to the kind of experiment: ELISA; F coated 5000 ng/ml; stored -80° C.
Test [6] deals with FHCS-4 (RSV strain A2) (UniProt P03420). As to the kind of experiment: ELISA; F coated 5000 ng/ml; stored -80° C.
Test [7] concerns the target FHCS-1 (RSV strain A2) (UniProt P03420). Nature of the test: ELISA; F coated 1250 ng/ml; stored -80° C.
Test [8] deals with FHCS-2 (RSV strain A2) (UniProt P03420). Nature of the test: ELISA; F coated 1250 ng/ml; stored -80° C.
Test [9] concerns the target FHCS-4 (RSV strain A2) (UniProt P03420). As to the kind of experiment: ELISA; F coated 1250 ng/ml; stored -80° C.
Test [10] addresses FHCS-1 (RSV strain A2) (UniProt P03420). As to the kind of experiment: ELISA; F coated 5000 ng/ml; stored -80° C. This is another data set of the same source.
Test [11] concerns the target FHCS-2 (RSV strain A2) (UniProt P03420). As to the kind of experiment: ELISA; F coated 5000 ng/ml; stored -80° C. This is another data set of the same source.
Test [12] concerns the target FHCS-4 (RSV strain A2) (UniProt P03420). As to the kind of experiment: ELISA; F coated 5000 ng/ml; stored -80° C. The source holds these as a separate data set.
The target in test [13] is FHCS-1 (RSV strain A2) (UniProt P03420). Nature of the test: ELISA; F coated 312.5 ng/ml; stored -80° C.
The target is the same in test [14]. Nature of the test: ELISA; F coated 10000 ng/ml; stored -80° C.
Test [15] addresses FHCS-2 (RSV strain A2) (UniProt P03420). As to the kind of experiment: ELISA; F coated 10000 ng/ml; stored -80° C.
Test [16] deals with FHCS-4 (RSV strain A2) (UniProt P03420). Nature of the test: ELISA; F coated 10000 ng/ml; stored -80° C.
Test [17] addresses FHCS-1 (RSV strain A2) (UniProt P03420). Nature of the test: ELISA; F coated 10000 ng/ml; stored 37° C. 4 W.
Test [18] has as its target FHCS-2 (RSV strain A2) (UniProt P03420). Nature of the test: ELISA; F coated 10000 ng/ml; stored 37° C. 4 W.
For test [19], the target named is FHCS-4 (RSV strain A2) (UniProt P03420). As to the kind of experiment: ELISA; F coated 10000 ng/ml; stored 37° C. 4 W.
In test [20] the target is FHCS-1 (RSV strain A2) (UniProt P03420). As to the kind of experiment: ELISA; F coated 2500 ng/ml; stored -80° C.
The target of test [21] is FHCS-2 (RSV strain A2) (UniProt P03420). As to the kind of experiment: ELISA; F coated 2500 ng/ml; stored -80° C.
Test [22] deals with FHCS-4 (RSV strain A2) (UniProt P03420). Nature of the test: ELISA; F coated 2500 ng/ml; stored -80° C.
The target of test [23] is FHCS-1 (RSV strain A2) (UniProt P03420). Nature of the test: ELISA; F coated 78.13 ng/ml; stored -80° C.
Test [24] addresses FHCS-2 (RSV strain A2) (UniProt P03420). Nature of the test: ELISA; F coated 78.13 ng/ml; stored -80° C.
For test [25], the target named is FHCS-4 (RSV strain A2) (UniProt P03420). As to the kind of experiment: ELISA; F coated 78.13 ng/ml; stored -80° C.
Test [26] deals with FHCS-1 (RSV strain A2) (UniProt P03420). Nature of the test: ELISA; F coated 156.3 ng/ml; stored -80° C.
Test [27] concerns the target FHCS-2 (RSV strain A2) (UniProt P03420). As to the kind of experiment: ELISA; F coated 156.3 ng/ml; stored -80° C.
The target of test [28] is FHCS-4 (RSV strain A2) (UniProt P03420). Nature of the test: ELISA; F coated 156.3 ng/ml; stored -80° C.
Test [29] deals with FHCS-2 (RSV strain A2) (UniProt P03420). As to the kind of experiment: ELISA; F coated 78.13 ng/ml; stored -80° C. This is another data set of the same source.
Test [30] concerns the target FHCS-4 (RSV strain A2) (UniProt P03420). As to the kind of experiment: ELISA; F coated 78.13 ng/ml; stored -80° C. The source holds these as a separate data set.
Test [31] has the same target. As to the kind of experiment: ELISA; F coated 2500 ng/ml; stored 37° C. 2 W.
The target of test [32] is FHCS-1 (RSV strain A2) (UniProt P03420). Nature of the test: ELISA; F coated 312.5 ng/ml; stored 37° C. 2 W.
In test [33] the target is FHCS-2 (RSV strain A2) (UniProt P03420). Nature of the test: ELISA; F coated 312.5 ng/ml; stored 37° C. 2 W.
Test [34] has as its target FHCS-4 (RSV strain A2) (UniProt P03420). Nature of the test: ELISA; F coated 312.5 ng/ml; stored 37° C. 2 W.
Test [35] concerns the target FHCS-1 (RSV strain A2) (UniProt P03420). As to the kind of experiment: ELISA; F coated 78.13 ng/ml; stored 37° C. 4 W.
Test [36] has as its target FHCS-2 (RSV strain A2) (UniProt P03420). Nature of the test: ELISA; F coated 78.13 ng/ml; stored 37° C. 4 W.
Test [37] has as its target FHCS-4 (RSV strain A2) (UniProt P03420). Nature of the test: ELISA; F coated 78.13 ng/ml; stored 37° C. 4 W.

Where “and” joins values, the source holds several entries; their conditions need not be identical. Identical values can stand only once.

For AM14 monoclonal antibody, the OD value in test [1] is 0.01 OD; with FHCS-2 (RSV strain A2) [2] it was 0.008 OD; with FHCS-4 (RSV strain A2) [3], 0.005 OD and 0.006 OD; with FHCS-1 (RSV strain A2) [4], 0.158 OD and 0.167 OD; with FHCS-2 (RSV strain A2) [5] it was 0.203 OD and 0.382 OD; in the test with FHCS-4 (RSV strain A2) [6], 0.404 OD and 0.294 OD. Moreover, the OD value with FHCS-1 (RSV strain A2) [7] is 0.011 OD and 0.015 OD; with FHCS-2 (RSV strain A2) [8] it was 0.017 OD and 0.02 OD; with FHCS-4 (RSV strain A2) [9], 0.007 OD and 0.006 OD; with FHCS-1 (RSV strain A2) [10], 0.902 OD and 0.775 OD; with FHCS-2 (RSV strain A2) [11] it was 0.985 OD and 0.796 OD; with FHCS-4 (RSV strain A2) [12] it was 0.252 OD and 0.209 OD. The OD value with FHCS-1 (RSV strain A2) [13] was 0.004 OD and 0.008 OD; in the test with FHCS-1 (RSV strain A2) [14], 1.77 OD and 2.07 OD; with FHCS-2 (RSV strain A2) [15], 2.01 OD and 2.11 OD; with FHCS-4 (RSV strain A2) [16] it was 0.825 OD and 0.743 OD; in the test with FHCS-1 (RSV strain A2) [17], 1.87 OD and 2.17 OD; with FHCS-2 (RSV strain A2) [18], 2.11 OD and 2.23 OD. The OD value with FHCS-4 (RSV strain A2) [19] was 1.76 OD and 2.01 OD.
Synagis® (antibody): the OD value with FHCS-1 (RSV strain A2) [20] is 1.5 OD and 1.61 OD; with FHCS-2 (RSV strain A2) [21] it was 1.78 OD and 1.8 OD; in the test with FHCS-4 (RSV strain A2) [22], 0.947 OD and 0.991 OD; with FHCS-1 (RSV strain A2) [23], 0.009 OD and 0.01 OD; in the test with FHCS-2 (RSV strain A2) [24], 0.014 OD and 0.015 OD; with FHCS-4 (RSV strain A2) [25], 0.009 OD and 0.011 OD. For the same substance, the OD value in the test with FHCS-1 (RSV strain A2) [26] is 0.021 OD and 0.019 OD; with FHCS-2 (RSV strain A2) [27], 0.043 OD and 0.038 OD; in the test with FHCS-4 (RSV strain A2) [28] it was 0.016 OD; with FHCS-2 (RSV strain A2) [29], 0.016 OD; with FHCS-4 (RSV strain A2) [30], 0.008 OD; in the test with FHCS-4 (RSV strain A2) [31] it was 1.46 OD and 1.58 OD. Moreover, the OD value with FHCS-1 (RSV strain A2) [32] was 0.051 OD and 0.05 OD; with FHCS-2 (RSV strain A2) [33], 0.084 OD and 0.095 OD; with FHCS-4 (RSV strain A2) [34] it was 0.074 OD and 0.071 OD; in the test with FHCS-1 (RSV strain A2) [35], 0.025 OD and 0.032 OD; with FHCS-2 (RSV strain A2) [36], 0.03 OD and 0.028 OD; with FHCS-4 (RSV strain A2) [37], 0.019 OD and 0.025 OD.
